First the molecules themselves.
B1: DISC1 C-terminal construct (598-854), WT (domain or fragment, human, UniProt Q9NRI5-1 598-854, looked up)
chain: GNHFFTAKDLTEEIRSLTSEREGLEGLLSKLLVLSSRNVKKLGSVKEDYNRLRREVEHQETAYETSVKENTMKYMETLKNKLCSCKCPLLGKVWEADLEACRLLIQSLQLQEARGSLSVEDERQMDDLEGAAPPIPPRLHSEDKRKTPLKVLEEFKTHLIPSLHCAGGEQKEESYILSAELGEKCEDIGKKLLYLEDQLHTAIHSHDEDLIQSLRRELQMVKETLQAMILQLQPAKEAGEREAAASCMTAGVHEAQA
notes: Disrupted-in-schizophrenia-1 (DISC1), human, residues 598-854, with W602F and W752F so that W691 is the single tryptophan; In pET28b(+) as His-tag fusion; also called DISC1 598-854; C-terminal WT construct; source: E. coli BL21 (DE3), purified (Ni-NTA, SEC)
B2: DISC1 598-854 C680S/C682S/C698S/C762S/C782S/C844S (domain or fragment, human, UniProt Q9NRI5-1 598-854, looked up)
chain: GNHFFTAKDLTEEIRSLTSEREGLEGLLSKLLVLSSRNVKKLGSVKEDYNRLRREVEHQETAYETSVKENTMKYMETLKNKLSSSKCPLLGKVWEADLEASRLLIQSLQLQEARGSLSVEDERQMDDLEGAAPPIPPRLHSEDKRKTPLKVLEEFKTHLIPSLHSAGGEQKEESYILSAELGEKSEDIGKKLLYLEDQLHTAIHSHDEDLIQSLRRELQMVKETLQAMILQLQPAKEAGEREAAASSMTAGVHEAQA
notes: DISC1, human, residues 598-854; source: E. coli BL21 (DE3), purified (Ni-NTA, SEC)
B3: DISC1 598-854 C682S/C698S/C762S/C782S/C844S (domain or fragment, human, UniProt Q9NRI5-1 598-854, looked up)
chain: GNHFFTAKDLTEEIRSLTSEREGLEGLLSKLLVLSSRNVKKLGSVKEDYNRLRREVEHQETAYETSVKENTMKYMETLKNKLCSSKCPLLGKVWEADLEASRLLIQSLQLQEARGSLSVEDERQMDDLEGAAPPIPPRLHSEDKRKTPLKVLEEFKTHLIPSLHSAGGEQKEESYILSAELGEKSEDIGKKLLYLEDQLHTAIHSHDEDLIQSLRRELQMVKETLQAMILQLQPAKEAGEREAAASSMTAGVHEAQA
notes: as for B2
B4: DISC1 598-854 (C698S/C762S/C782S/C844S) (domain or fragment, human, UniProt Q9NRI5-1 598-854, looked up)
chain: GNHFFTAKDLTEEIRSLTSEREGLEGLLSKLLVLSSRNVKKLGSVKEDYNRLRREVEHQETAYETSVKENTMKYMETLKNKLCSCKCPLLGKVWEADLEASRLLIQSLQLQEARGSLSVEDERQMDDLEGAAPPIPPRLHSEDKRKTPLKVLEEFKTHLIPSLHSAGGEQKEESYILSAELGEKSEDIGKKLLYLEDQLHTAIHSHDEDLIQSLRRELQMVKETLQAMILQLQPAKEAGEREAAASSMTAGVHEAQA
notes: DISC1, human, residues 598-854; also called WT*; pseudo-WT variant; source: E. coli BL21 (DE3), purified (Ni-NTA, SEC)
B5: DISC1 598-854 C680S/C698S/C762S/C782S/C844S (domain or fragment, human, UniProt Q9NRI5-1 598-854, looked up)
chain: GNHFFTAKDLTEEIRSLTSEREGLEGLLSKLLVLSSRNVKKLGSVKEDYNRLRREVEHQETAYETSVKENTMKYMETLKNKLSSCKCPLLGKVWEADLEASRLLIQSLQLQEARGSLSVEDERQMDDLEGAAPPIPPRLHSEDKRKTPLKVLEEFKTHLIPSLHSAGGEQKEESYILSAELGEKSEDIGKKLLYLEDQLHTAIHSHDEDLIQSLRRELQMVKETLQAMILQLQPAKEAGEREAAASSMTAGVHEAQA
notes: as for B2
B6: DISC1 598-854 C682S/C684S/C698S/C762S/C782S/C844S (domain or fragment, human, UniProt Q9NRI5-1 598-854, looked up)
chain: GNHFFTAKDLTEEIRSLTSEREGLEGLLSKLLVLSSRNVKKLGSVKEDYNRLRREVEHQETAYETSVKENTMKYMETLKNKLCSSKSPLLGKVWEADLEASRLLIQSLQLQEARGSLSVEDERQMDDLEGAAPPIPPRLHSEDKRKTPLKVLEEFKTHLIPSLHSAGGEQKEESYILSAELGEKSEDIGKKLLYLEDQLHTAIHSHDEDLIQSLRRELQMVKETLQAMILQLQPAKEAGEREAAASSMTAGVHEAQA
notes: as for B2
B7: DISC1 598-854 C684S/C698S/C762S/C782S/C844S (domain or fragment, human, UniProt Q9NRI5-1 598-854, looked up)
chain: GNHFFTAKDLTEEIRSLTSEREGLEGLLSKLLVLSSRNVKKLGSVKEDYNRLRREVEHQETAYETSVKENTMKYMETLKNKLCSCKSPLLGKVWEADLEASRLLIQSLQLQEARGSLSVEDERQMDDLEGAAPPIPPRLHSEDKRKTPLKVLEEFKTHLIPSLHSAGGEQKEESYILSAELGEKSEDIGKKLLYLEDQLHTAIHSHDEDLIQSLRRELQMVKETLQAMILQLQPAKEAGEREAAASSMTAGVHEAQA
notes: as for B2
B8: DISC1 598-854 C680S/C684S/C698S/C762S/C782S/C844S (domain or fragment, human, UniProt Q9NRI5-1 598-854, looked up)
chain: GNHFFTAKDLTEEIRSLTSEREGLEGLLSKLLVLSSRNVKKLGSVKEDYNRLRREVEHQETAYETSVKENTMKYMETLKNKLSSCKSPLLGKVWEADLEASRLLIQSLQLQEARGSLSVEDERQMDDLEGAAPPIPPRLHSEDKRKTPLKVLEEFKTHLIPSLHSAGGEQKEESYILSAELGEKSEDIGKKLLYLEDQLHTAIHSHDEDLIQSLRRELQMVKETLQAMILQLQPAKEAGEREAAASSMTAGVHEAQA
notes: as for B2
B9: DISC1 598-854 C680S/C682S/C684S/C698S/C762S/C782S/C844S (domain or fragment, human, UniProt Q9NRI5-1 598-854, looked up)
chain: GNHFFTAKDLTEEIRSLTSEREGLEGLLSKLLVLSSRNVKKLGSVKEDYNRLRREVEHQETAYETSVKENTMKYMETLKNKLSSSKSPLLGKVWEADLEASRLLIQSLQLQEARGSLSVEDERQMDDLEGAAPPIPPRLHSEDKRKTPLKVLEEFKTHLIPSLHSAGGEQKEESYILSAELGEKSEDIGKKLLYLEDQLHTAIHSHDEDLIQSLRRELQMVKETLQAMILQLQPAKEAGEREAAASSMTAGVHEAQA
notes: DISC1, human, residues 598-854, all cysteines mutated to serine; also called C680S/C6802S/C684S*; C680S/C684S/C682S*; source: E. coli BL21 (DE3), purified (Ni-NTA, SEC)

The series deals with the molecule itself. In words: SEC; HiLoad 26/600 Superdex 200 pg; 50 mM Tris-HCl, 10 mM NaCl, pH 8.0; self-association of the purified construct. Background: Size exclusion chromatography separates by hydrodynamic size, large species first.
Regarding B1, the stoichiometry N (as a rule, a count of units in the complex or per binding partner) is 4.

Consider B2, for which the binding result is on record as “binds”.

As to B3, the binding result is on record as “binds”.

Take B4: the binding result is given as “binds”.

B5: the binding result is reported as “binds”.

As for B6, the binding result is given as “binds”.

On to B7, for which the binding result is on record as “binds”.

With B8, the binding result was “binds”.

Regarding B9, the binding result was “binds”.

The record behind these values is article PMC10773898, “Evidence of DISC1 as an arsenic binding protein and implications regarding its role as a translational activator” (Frontiers in Molecular Biosciences, 2023).
